Experimental data published in article PMC10062032 (ACS Nano, 2023).

Target: T1, Methylococcus capsulatus (Bath) soluble methane monooxygenase hydroxylase (sMMOH), alpha subunit (Methylococcus capsulatus (Bath), UniProt P22869 1-527)
T1 sequence (looked up): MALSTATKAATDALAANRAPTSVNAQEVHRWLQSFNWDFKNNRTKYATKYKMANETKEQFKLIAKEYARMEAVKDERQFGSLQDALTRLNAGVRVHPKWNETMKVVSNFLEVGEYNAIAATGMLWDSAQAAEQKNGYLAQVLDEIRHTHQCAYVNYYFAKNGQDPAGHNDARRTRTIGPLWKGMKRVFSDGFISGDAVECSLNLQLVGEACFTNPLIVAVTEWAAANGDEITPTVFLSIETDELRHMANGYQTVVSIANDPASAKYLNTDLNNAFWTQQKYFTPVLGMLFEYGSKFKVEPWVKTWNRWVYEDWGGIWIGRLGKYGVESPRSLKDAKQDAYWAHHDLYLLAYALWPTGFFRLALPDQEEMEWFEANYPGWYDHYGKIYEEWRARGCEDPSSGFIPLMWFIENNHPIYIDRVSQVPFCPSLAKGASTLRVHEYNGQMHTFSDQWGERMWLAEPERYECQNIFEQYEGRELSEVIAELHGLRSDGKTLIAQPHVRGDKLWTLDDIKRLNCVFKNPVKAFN
Assay: cryo-EM structure

B1: Methylococcus capsulatus (Bath) soluble methane monooxygenase hydroxylase (sMMOH), beta subunit (natural protein, UniProt P18798 1-389, looked up)
chain: MSMLGERRRGLTDPEMAAVILKALPEAPLDGNNKMGYFVTPRWKRLTEYEALTVYAQPNADWIAGGLDWGDWTQKFHGGRPSWGNETTELRTVDWFKHRDPLRRWHAPYVKDKAEEWRYTDRFLQGYSADGQIRAMNPTWRDEFINRYWGAFLFNEYGLFNAHSQGAREALSDVTRVSLAFWGFDKIDIAQMIQLERGFLAKIVPGFDESTAVPKAEWTNGEVYKSARLAVEGLWQEVFDWNESAFSVHAVYDALFGQFVRREFFQRLAPRFGDNLTPFFINQAQTYFQIAKQGVQDLYYNCLGDDPEFSDYNRTVMRNWTGKWLEPTIAALRDFMGLFAKLPAGTTDKEEITASLYRVVDDWIEDYASRIDFKADRDQIVKAVLAGLK
  binding result: binds
